From patent publication US12083165B2, “Thymosin alpha 1 for use in treatment of cystic fibrosis” (SciClone Pharmaceuticals International (SG) PTE. LTD., priority 2015, dated 2024)

Assays:
CFTR = target: T1, CFTR (Homo sapiens, UniProt P13569, DEL508-508); test: CFTR protein expression (band C) in HBE cells from CF patients; assay type: cell-based; settings: 100 ng/ml Tα1 for 24 hours, cells from 5 CF patients
T1 construct: endogenous in cells; host or cells: primary HBE cells from lung transplants of CF patients
Method: Cells. Cell Lines and Cell Culture—Human bronchial epithelial (HBE) cells, homozygous for the […] mutation and its isogenic wild-type were obtained from lung transplants (CF patients) or lung resections (non-CF patients) (kindly provided by L J Galietta within the Italian Cystic Fibrosis Foundation). Cells were maintained at 37° C. in a humidified incubator in an atmosphere containing 5% CO2, and the experiments were done 5 days after plating (21, 22). Stable lentiviral-based transduction of the parental CFBE41o− cells (ΔF508/ΔF508), originally immortalized and characterized by Dr. D. Gruenert and co-workers (32) with either WT-CFTR or ΔF508-CFTR, was performed by Tranzyme, Inc. (Birmingham, AL). […]
CFTR Immunoblot Analysis. […] LiteAblotPlus chemiluminescence substrate (Euroclone S.p.A.), using ChemiDoc™ XRS+ Imagig system (Bio-Rad Laboratories) and blot quantification was obtained by densitometry image analysis using Image Lab 3.1.1 software (Bio-Rad).
The SV40 transformed CF airway epithelial cell line (CFBE41o−), homozygous for the ΔF508-CFTR mutation, was used (32). […] CFTR bands were quantified by densitometry and expressed as the C/B ratio. […]

ΔF508 CFTR = ΔF508 CFTR (Homo sapiens, UniProt P13569, DEL508-508); test: Immunoblot of purified plasma membrane (PM) fraction for CFTR; assay type: cell-based; settings: 100 ng/ml Tα1, plasma membrane fraction
Method: CFTR Immunoblot Analysis. Immunoblot techniques using the anti-CFTR antibody (clone CF3, Abcam) were used to measure CFTR maturation in FRT, HEK-293, or HBE cells expressing CFTR or F508del-CFTR (34). After incubation, cells were harvested in ice-cold D-PBS solution (without calcium and magnesium) and pelleted at 1,000×g at 4° C. Cell pellets were lysed in 1% Nonidet P-40, 0.5% sodium deoxycholate, 200 mM NaCl, 10 mM Tris, pH 7.8, and 1 mM EDTA plus protease inhibitor mixture (1:250; Roche) for 30 min on ice. Lysates were spun for 10 min at 10,000×g at 4° C. to pellet nuclei and insoluble material. Approximately 12 μg total protein was heated in Laemmli buffer with 5% β-mercaptoethanol at 37° C. for 5 min and loaded onto a 3% to 8% Tris-acetate gel (Invitrogen). […] LiteAblotPlus chemiluminescence substrate (Euroclone S.p.A.), using ChemiDoc™ XRS+ Imagig system (Bio-Rad Laboratories) and blot quantification was obtained by densitometry image analysis using Image Lab 3.1.1 software (Bio-Rad).
The SV40 transformed CF airway epithelial cell line (CFBE41o−), homozygous for the ΔF508-CFTR mutation, was used (32). […] CFTR bands were quantified by densitometry and expressed as the C/B ratio. […] Densitometric measurement of the CFTR (C band) at the PM was expressed as CFTR PM/CFTR total ratio (Panel C, FIG. 2).

T1 sequence (P13569 with tags, fused parts or gaps DEL508-508): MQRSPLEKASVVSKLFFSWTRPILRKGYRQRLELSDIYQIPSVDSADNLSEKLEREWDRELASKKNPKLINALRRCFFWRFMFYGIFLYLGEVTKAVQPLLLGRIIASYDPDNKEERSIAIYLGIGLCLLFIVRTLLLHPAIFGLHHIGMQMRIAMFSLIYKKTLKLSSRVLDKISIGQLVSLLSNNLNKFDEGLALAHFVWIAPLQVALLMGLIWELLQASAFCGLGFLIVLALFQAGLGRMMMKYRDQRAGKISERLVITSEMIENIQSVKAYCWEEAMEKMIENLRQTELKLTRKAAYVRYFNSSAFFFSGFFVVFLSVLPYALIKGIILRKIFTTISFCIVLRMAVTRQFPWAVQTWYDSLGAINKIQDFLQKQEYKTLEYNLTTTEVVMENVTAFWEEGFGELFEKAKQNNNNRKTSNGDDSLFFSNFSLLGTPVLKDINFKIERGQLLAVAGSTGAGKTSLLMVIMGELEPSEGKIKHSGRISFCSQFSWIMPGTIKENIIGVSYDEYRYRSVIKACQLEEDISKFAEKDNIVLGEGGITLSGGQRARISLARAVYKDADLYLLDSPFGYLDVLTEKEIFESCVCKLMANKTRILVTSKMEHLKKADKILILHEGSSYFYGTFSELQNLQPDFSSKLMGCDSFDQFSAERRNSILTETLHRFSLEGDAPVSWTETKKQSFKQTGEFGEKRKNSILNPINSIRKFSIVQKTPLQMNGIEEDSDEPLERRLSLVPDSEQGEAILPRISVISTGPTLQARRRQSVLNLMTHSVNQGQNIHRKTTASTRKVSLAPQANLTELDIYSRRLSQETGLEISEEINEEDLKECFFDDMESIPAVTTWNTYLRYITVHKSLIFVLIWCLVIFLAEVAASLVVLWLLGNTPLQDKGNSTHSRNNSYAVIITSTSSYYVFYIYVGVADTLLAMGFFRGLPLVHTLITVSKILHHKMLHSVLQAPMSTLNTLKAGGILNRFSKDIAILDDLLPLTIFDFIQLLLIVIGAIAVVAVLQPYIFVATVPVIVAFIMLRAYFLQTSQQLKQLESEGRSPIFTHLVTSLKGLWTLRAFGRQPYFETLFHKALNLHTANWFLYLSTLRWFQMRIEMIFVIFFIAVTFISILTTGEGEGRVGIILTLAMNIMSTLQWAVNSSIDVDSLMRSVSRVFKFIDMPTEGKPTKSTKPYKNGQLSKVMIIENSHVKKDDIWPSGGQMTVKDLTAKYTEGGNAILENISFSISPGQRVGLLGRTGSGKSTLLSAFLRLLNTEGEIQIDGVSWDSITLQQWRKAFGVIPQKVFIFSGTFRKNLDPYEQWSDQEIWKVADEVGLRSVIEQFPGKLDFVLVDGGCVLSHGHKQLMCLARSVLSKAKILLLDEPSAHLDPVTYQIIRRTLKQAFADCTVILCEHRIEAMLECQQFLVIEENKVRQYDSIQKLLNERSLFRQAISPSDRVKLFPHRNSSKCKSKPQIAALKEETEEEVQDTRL
Chain of ΔF508 CFTR (P13569 with tags, fused parts or gaps DEL508-508): as above

Substance: Ac-Ser-Asp-Ala-Ala-Val-Asp-Thr-Ser-Ser-Glu-Ile-Thr-Thr-Lys-Asp-Leu-Lys-Glu-Lys-Lys-Glu-Val-Val-Glu-Glu-Ala-Glu-Asn-O (Ac-SDAAVDTSSEITTKDLKEKKEVVEEAEN-OH; not fully specified; printed as Ac-Ser-Asp-Ala-Ala-Val-Asp-Thr-Ser-Ser-Glu-Ile-Thr-Thr-Lys-Asp-Leu-Lys-Glu-Lys-Lys-Glu-Val-Val-Glu-Glu-Ala-Glu-Asn-O; listed as Homo sapiens) [Tα1, naturally occurring polypeptide of 28 amino acid; supplied as purified sterile, lyophilized, acetylated polypeptide]
- CF patients whose HBE cells showed increased expression of CFTR (band C) (CFTR): 3 patients
- expression of ΔF508 CFTR at PM (CFTR PM/CFTR total ratio) (ΔF508 CFTR): increased
